The values below come from patent US7442378B2, “Attenuated circovirus” (The University of Melbourne, priority 2001, dated 2008).

“Also recorded” adds a separate entry of the source.

The test system of data set [1] is T1, phosphopeptide substrate H-Glu-Asn-Asp-Tyr(PO3H2)-Ile-Asn-Ala-Ser-Leu-OH.
T1 sequence: ENDYINASL

Another data set has as its system CAV VP2-GST PTPase. Description: Sodium orthovanadate inhibition of PTPase activity. Type of data set: biochemical, Chicken anaemia virus. As for the experimental part: Stock 1 mM […] was made in distilled water and adjusted to pH 10 with sulphuric acid. Once dissolved, stock […] was added to AB and TB buffer at a ratio of 1:1:1 and adjusted to pH 7. Inhibition studies were conducted with 0.1 mM, 0.01 mM and 0.001 mM of sodium orthovanadate. All other reaction conditions were as described above. Assays were with 10 nmol substrate and 9 μg CAV VP2-GST and were in triplicate for each concentration of inhibitor.

The conditions of data set [2]: known PTPases, comparison values; cited from earlier work.
The target in data set [3] is T2, phosphopeptide substrate H-Glu-Asn-Asp-Tyr(PO3H2)-Ile-Asn-Ala-Ser-Leu-OH.
T2 chain: ENDYINASL

Data set [4] deals with peptide substrate ENDY(Pi)INASL. The data set is classed as biochemical.
For data set [5] the test system is unchanged. In words: Enzyme pH optimum of CAV VP2-GST PTPase. Type of data set: biochemical. On the procedure:
Triplicate reactions were set up at pH 4, pH 5, pH 6, pH 7, pH 8 and pH 9. Assays were with 10 nmol substrate and 9 μg CAV VP2-GST and all other reaction conditions were as described above. Prior to addition of the malachite green reagent the pH was neutralised to pH 7 with either sulphuric acid or sodium hydroxide.

On to TLMV ORF2-GST fusion protein, for which the “PTPase activity (steady state)” value in data set [1] is listed as “The steady state activity was equivalent to that demonstrated for CAV VP2”.
Turning to `[Na+].[Na+].[Na+].[O]=[V]([O-])([O-])[O-]` [sodium orthovanadate], in the data set with CAV VP2-GST PTPase, the “Inhibition of VP2-GST PTPase activity” value is given as “specifically inhibited; also recorded: completely inhibited” and the “Orthovanadate concentration giving maximal inhibition of CAV VP2 activity (as low as)” value amounted to 0.001 mM.
As for “PTP1B: low Mr PTPase cited for comparison [reference compound]”, the Vmax in data set [2] was 20 000 U/mg min.

B1: CAV VP2-GST fusion protein (protein)
chain: MHGNGGQPAAGGSESALSREGQPGPSGAAQGQVISNERSPRRYSTRTINGVQATNKFTAVGNPSLQRDPDWYRWNYSHSIAVWLRECSRSHAKICNCGQFRKHWFQECAGLEDRSTQASLEEAILRPLRVQGKRAKRKLDYHYSQPTPNRKKVYKTVRWQDELADREADFTPSEEDGGTTSSDFDEDINFDIGGDSGIVDELLGRPFTTPAPVRIV
Regarding B1, in data set [3], the “Km (PTPase assay, malachite green, Lineweaver-Burk plot)” value was “Km to be 16.95 µM”; the “Vmax (PTPase assay, malachite green, Lineweaver-Burk plot)” value was “Vmax was estimated to be 14 280 U/mg min”; the Vo with 0.001 mM orthovanadate, 10 nmol substrate came to 0.002; the Vo with 0.01 mM orthovanadate, 10 nmol substrate was 0. Also, in data set [3], the Vo with 0.1 mM orthovanadate, 10 nmol substrate is 0; the Vo without orthovanadate, 10 nmol substrate came out at 5.61; the mean Vo (nmol) at pH 4, 10 nmol substrate was determined as 1.75 nmol; the mean Vo (nmol) at pH 5, 10 nmol substrate came to 1.47 nmol. In data set [3], this molecule returned a mean Vo (nmol) at pH 6, 10 nmol substrate of 5.64 nmol; a mean Vo (nmol) at pH 7, 10 nmol substrate of 5.61 nmol; a mean Vo (nmol) at pH 8, 10 nmol substrate of 1.83 nmol; a mean Vo (nmol) at pH 9, 10 nmol substrate of 0 nmol.

B2: VP2-GST: CAV viral protein 2 produced as fusion with glutathione S-transferase in E. coli (protein)
chain: B1 chain
modifications: left off: a dimerising Fc or GST
notes: CAV viral protein 2 produced as fusion with glutathione S-transferase in E. coli
The molecule B2 returned a 1/Vmax in data set [4] (linear regression of double reciprocal plot) of 0.060. Moreover, the Vmax in data set [4] (substrate ENDY(Pi)INASL, Lineweaver-Burk plot, Vo at 1 min) is listed as 14 280 U/mg min. Further, the “mean Vo, PTPase activity” value is 1.746 nmol in data set [5] (pH 4, S 10 nmol); 1.474 nmol in data set [5] (pH 5, S 10 nmol); 5.636 nmol in data set [5] (pH 6, S 10 nmol); 5.612 nmol in data set [5] (pH 7, S 10 nmol); 1.829 nmol in data set [5] (pH 8, S 10 nmol); 0.000 nmol in data set [5] (pH 9, S 10 nmol). For the same molecule, in data set [5] (reactions at pH 4 to pH 9, listed as CAV VP2), the “pH of optimal PTPase activity” value is recorded as 6-7.

B3: CD45: high Mr PTPase from human spleen cited for comparison (protein, UniProt P08575 26-1306, looked up)
Receptor-type …: QSPTPSPTGLTTAKMPSVPLSSDPLPTHTTAFSPASTFERENDFSETTTSLSPDNTSTQVSPDSLDNASAFNTTGVSSVQTPHLPTHADSQTPSAGTDTQTFSGSAANAKLNPTPGSNAISDVPGERSTASTFPTDPVSPLTTTLSLAHHSSAALPARTSNTTITANTSDAYLNASETTTLSPSGSAVISTTTIATTPSKPTCDEKYANITVDYLYNKETKLFTAKLNVNENVECGNNTCTNNEVHNLTECKNASVSISHNSCTAPDKTLILDVPPGVEKFQLHDCTQVEKADTTICLKWKNIETFTCDTQNITYRFQCGNMIFDNKEIKLENLEPEHEYKCDSEILYNNHKFTNASKIIKTDFGSPGEPQIIFCRSEAAHQGVITWNPPQRSFHNFTLCYIKETEKDCLNLDKNLIKYDLQNLKPYTKYVLSLHAYIIAKVQRNGSAAMCHFTTKSAPPSQVWNMTVSMTSDNSMHVKCRPPRDRNGPHERYHLEVEAGNTLVRNESHKNCDFRVKDLQYSTDYTFKAYFHNGDYPGEPFILHHSTSYNSKALIAFLAFLIIVTSIALLVVLYKIYDLHKKRSCNLDEQQELVERDDEKQLMNVEPIHADILLETYKRKIADEGRLFLAEFQSIPRVFSKFPIKEARKPFNQNKNRYVDILPYDYNRVELSEINGDAGSNYINASYIDGFKEPRKYIAAQGPRDETVDDFWRMIWEQKATVIVMVTRCEEGNRNKCAEYWPSMEEGTRAFGDVVVKINQHKRCPDYIIQKLNIVNKKEKATGREVTHIQFTSWPDHGVPEDPHLLLKLRRRVNAFSNFFSGPIVVHCSAGVGRTGTYIGIDAMLEGLEAENKVDVYGYVVKLRRQRCLMVQVEAQYILIHQALVEYNQFGETEVNLSELHPYLHNMKKRDPPSEPSPLEAEFQRLPSYRSWRTQHIGNQEENKSKNRNSNVIPYDYNRVPLKHELEMSKESEHDSDESSDDDSDSEEPSKYINASFIMSYWKPEVMIAAQGPLKETIGDFWQMIFQRKVKVIVMLTELKHGDQEICAQYWGEGKQTYGDIEVDLKDTDKSSTYTLRVFELRHSKRKDSRTVYQYQYTNWSVEQLPAEPKELISMIQVVKQKLPQKNSSEGNKHHKSTPLLIHCRDGSQQTGIFCALLNLLESAETEEVVDIFQVVKALRKARPGMVSTFEQYQFLYDVIASTYPAQNGQVKKNNHQEDKIEFDNEVDKVKQDANCVNPLGAPEKLPEAKEQAEGSEPTSGTEGPEHSVNGPASPALNQGS
For B3, the Vmax in data set [2] is given as 1 000 U/mg min.
